Reference: paper PMC5148137 (Biochemical and biophysical research communications, 2012)

Target: Cul3(1–383)-(His)6 (co-expressed) (human, UniProt Q13618 1-383)
Experiment: AUC

Chain of Cul3(1–383)-(His)6 (co-expressed) (Q13618 1-383): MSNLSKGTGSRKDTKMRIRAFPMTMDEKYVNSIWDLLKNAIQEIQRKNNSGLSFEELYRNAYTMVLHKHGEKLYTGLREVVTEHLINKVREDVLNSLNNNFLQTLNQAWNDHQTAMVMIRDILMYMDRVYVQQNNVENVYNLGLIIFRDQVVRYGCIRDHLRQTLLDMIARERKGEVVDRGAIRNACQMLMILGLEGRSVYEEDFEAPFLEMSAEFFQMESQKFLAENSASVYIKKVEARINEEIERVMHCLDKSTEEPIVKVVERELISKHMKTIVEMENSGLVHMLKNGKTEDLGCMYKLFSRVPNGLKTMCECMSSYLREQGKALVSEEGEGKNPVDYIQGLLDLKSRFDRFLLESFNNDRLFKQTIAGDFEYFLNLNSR

B1: MBP-KBTBD13(6–132) (domain or fragment, human, UniProt C9JR72 6-132, looked up)
chain: QTLVQVWVGGQLFQADRALLVEHCGFFRGLFRSGMRETRAAEVRLGVLSAGGFRATLQVLRGDRPALAAEDELLQAVECAAFLQAPALARFLEHNLTSDNCALLCDAAAAFGLRDVFHSAALFICDG
- stoichiometry N: 1
